Consider six sequences from the supplement of paper PMC11316812.

In one series the test system is MCF7. Briefly: percentage of EdU-negative (G0-arrested) nuclei per well, 72 h; higher = more G0 arrest. To be noted: reference: sequence is the full UniProt precursor, the tested protein was the secreted form or ectodomain.
For another series, the system named is hTERT-HMEC. The series is described as above. To be noted: reference: sequence is the full UniProt precursor, the tested protein was the secreted form or ectodomain.
Setting [1] is: protein concentration 0.00925 µM.
[2] abbreviates: protein concentration 0.0925 µM.
The mark [3] stands for this setting: protein concentration 0.01425 µM.
Setting [4] is: protein concentration 0.1425 µM.
The mark [5] stands for this setting: protein concentration 0.0225 µM.
[6] abbreviates: protein concentration 0.03125 µM.
Setting [7] is: protein concentration 0.3125 µM.

± gives the standard deviation of the averaged measurements.
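Note: secreted proteins added to cultured cells, EdU pulse at the end, nuclei found by Hoechst imaging, EdU status from nuclear versus surrounding ring intensity ratio, PBS as neutral control.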

With “MPPFLLLTCLFITGTSVSPVALDPCSAYISLNEPWRNTDHQLDESQGPPLCDNHVNGEWYHFTGMAGDAMPTFCIPENHCGTHAPVWLNGSHPLEGDGIVQRQACASFNGNCCLWNTTVEVKACPGGYYVYRLTKPSVCFHVYCGHFYDICDEDCHGSCSDTSECTCAPGTVLGPDRQTCFDENECEQNNGGCSEICVNLKNSYRCECGVGRVLRSDGKTCEDVEGCHNNNGGCSHSCLGSEKGYQCECPRGLVLSEDNHTCQVPVLCKSNAIEVNIPRELVGGLELFLTNTSCRGVSNGTHVNILFSLKTCGTVVDVVNDKIVASNLVTGLPKQTPGSSGDFIIRTSKLLIPVTCEFPRLYTISEGYVPNLRNSPLEIMSRNHGIFPFTLEIFKDNEFEEPYREALPTLKLRDSLYFGIEPVVHVSGLESLVESCFATPTSKIDEVLKYYLIRDGCVSDDSVKQYTSRDHLAKHFQVPVFKFVGKDHKEVFLHCRVLVCGVLDERSRCAQGCHRRMRRGAGGEDSAGLQGQTLTGGPIRIDWED [Q8WWZ8]”, the “percentage of EdU-negative” value in the series with MCF7 (protein concentration 0.007 µM) is 25.2 ± 1.8%; in the series with MCF7 (protein concentration 0.07 µM), 27.3 ± 1.3%; in the series with hTERT-HMEC (protein concentration 0.007 µM), 5.2 ± 0.59%; with hTERT-HMEC (protein concentration 0.07 µM) it was 5.67 ± 1.7%.

Take “MPPGPWESCFWVGGLILWLSVGSSGDAPPTPQPKCADFQSANLFEGTDLKVQFLLFVPSNPSCGQLVEGSSDLQNSGFNATLGTKLIIHGFRVLGTKPSWIDTFIRTLLRATNANVIAVDWIYGSTGVYFSAVKNVIKLSLEISLFLNKLLVLGVSESSIHIIGVSLGAHVGGMVGQLFGGQLGQITGLDPAGPEYTRASVEERLDAGDALFVEAIHTDTDNLGIRIPVGHVDYFVNGGQDQPGCPTFFYAGYSYLICDHMRAVHLYISALENSCPLMAFPCASYKAFLAGRCLDCFNPFLLSCPRIGLVEQGGVKIEPLPKEVKVYLLTTSSAPYCMHHSLVEFHLKELRNKDTNIEVTFLSSNITSSSKITIPKQQRYGKGIIAHATPQCQINQVKFKFQSSNRVWKKDRTTIIGKFCTALLPVNDREKMVCLPEPVNLQASVTVSCDLKIACV [Q53H76]”: the “percentage of EdU-negative” value in the series on MCF7 (setting [1]) was 24.3 ± 1.9%; in the series with MCF7 (setting [2]) it was 28.4 ± 1.4%; in the series on hTERT-HMEC (setting [1]) it was 4.11 ± 0.46%; with hTERT-HMEC (setting [2]), 6.06 ± 0.41%.

On to “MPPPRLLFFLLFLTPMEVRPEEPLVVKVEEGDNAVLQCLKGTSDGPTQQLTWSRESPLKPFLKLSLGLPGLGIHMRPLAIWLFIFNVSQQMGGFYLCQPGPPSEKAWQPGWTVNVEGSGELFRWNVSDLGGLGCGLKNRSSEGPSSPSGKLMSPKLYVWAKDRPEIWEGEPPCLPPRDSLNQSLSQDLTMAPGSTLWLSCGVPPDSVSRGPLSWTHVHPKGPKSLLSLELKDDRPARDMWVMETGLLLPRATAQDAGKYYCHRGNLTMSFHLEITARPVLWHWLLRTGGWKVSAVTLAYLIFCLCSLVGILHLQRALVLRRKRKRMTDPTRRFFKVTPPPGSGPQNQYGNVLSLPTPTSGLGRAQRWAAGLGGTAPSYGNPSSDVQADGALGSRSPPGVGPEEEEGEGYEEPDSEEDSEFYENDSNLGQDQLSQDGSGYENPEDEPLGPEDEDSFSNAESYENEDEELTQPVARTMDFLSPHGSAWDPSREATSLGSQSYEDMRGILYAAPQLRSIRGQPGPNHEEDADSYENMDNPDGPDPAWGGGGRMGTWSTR”, for which the “percentage of EdU-negative” value in the series with MCF7 (setting [3]) came to 25.2 ± 1.1%; in the series on MCF7 (setting [4]) it was 26.2 ± 0.68%; in the series on hTERT-HMEC (setting [3]) it was 5.66 ± 0.95%; in the series with hTERT-HMEC (setting [4]), 8.73 ± 0.49%.

As for “MPPRGPASELLLLRLLLLGAATAAPLAPRPSKEELTRCLAEVVTEVLTVGQVQRGPCTALLHKELCGTEPHGCASTEEKGLLLGDFKKQEAGKMRSSQEVRDEEEEEVAERTHKSEVQEQAIRMQGHRQLHQEEDEEEEKEERKRGPMETFEDLWQRHLENGGDLQKRVAEKASDKETAQFQAEEKGVRVLGGDRSLWQGAERGGGERREDLPHHHHHHHQPEAEPRQEKEEASEREEKEVEQLEHLRDELKKVTETLGEQLRREG [I3L3R5]”, the “percentage of EdU-negative” value with MCF7 (setting [5]) is 26.1 ± 0.53%; in the series on MCF7 (protein concentration 0.225 µM), 26.5 ± 0.58%; in the series on hTERT-HMEC (setting [5]) it was 5.07 ± 1.4%; with hTERT-HMEC (protein concentration 0.225 µM) it was 7.54 ± 0.57%.

As for “MPPSGPRGTLLLLPLLLLLLLRAVLAVPLERGAPNKEETPATESPDTGLYYHRYLQEVIDVLETDGHFREKLQAANAEDIKSGKLSRELDFVSHHVRTKLDELKRQEVSRLRMLLKAKMDAEQDPNVQVDHLNLLKQFEHLDPQNQHTFEARDLELLIQTATRDLAQYDAAHHEEFKRYEMLKEHERRRYLESLGEEQRKEAERKLEEQQRRHREHPKVNVPGSQAQLKEVWEELDGLDPNRFNPKTFFILHDINSDGVLDEQELEALFTKELEKVYDPKNEEDDMREMEEERLRMREHVMKNVDTNQDRLVTLEEFLASTQRKEFGDTGEGWETVEMHPAYTEEELRRFEEELAAREAELNAKAQRLSQETEALGRSQGRLEAQKRELQQAVLHMEQRKQQQQQQQGHKAPAAHPEGQLKFHPDTDDVPVPAPAGDQKEVDTSEKKLLERLPEVEVPQHL”, the “percentage of EdU-negative” value is 24.1 ± 0.73% in the series on MCF7 (setting [6]), 26.9 ± 1.6% in the series on MCF7 (setting [7]), 4.94 ± 0.37% with hTERT-HMEC (setting [6]) and 7.16 ± 0.53% in the series on hTERT-HMEC (setting [7]).

For the sequence “MPRAPAPLYACLLGLCALLPRLAGLNICTSGSATSCEECLLIHPKCAWCSKEDFGSPRSITSRCDLRANLVKNGCGGEIESPASSFHVLRSLPLSSKGSGSAGWDVIQMTPQEIAVNLRPGDKTTFQLQVRQVEDYPVDLYYLMDLSLSMKDDLDNIRSLGTKLAEEMRKLTSNFRLGFGSFVDKDISPFSYTAPRYQTNPCIGYKLFPNCVPSFGFRHLLPLTDRVDSFNEEVRKQRVSRNRDAPEGGFDAVLQAAVCKEKIGWRKDALHLLVFTTDDVPHIALDGKLGGLVQPHDGQCHLNEANEYTASNQMDYPSLALLGEKLAENNINLIFAVTKNHYMLYKNFTALIPGTTVEILDGDSKNIIQLIINAYNSIRSKVELSVWDQPEDLNLFFTATCQDGVSYPGQRKCEGLKIGDTASFEVSLEARSCPSRHTEHVFALRPVGFRDSLEVGVTYNCTCGCSVGLEPNSARCNGSGTYVCGLCECSPGYLGTRCECQDGENQSVYQNLCREAEGKPLCSGRGDCSCNQCSCFESEFGKIYGPFCECDNFSCARNKGVLCSGHGECHCGECKCHAGYIGDNCNCSTDISTCRGRDGQICSERGHCLCGQCQCTEPGAFGEMCEKCPTCPDACSTKRDCVECLLLHSGKPDNQTCHSLCRDEVITWVDTIVKDDQEAVLCFYKTAKDCVMMFTYVELPSGKSNLTVLREPECGNTPNAMTILLAVVGSILLVGLALLAIWKLLVTIHDRREFAKFQSERSRARYEMASNPLYRKPISTHTVDFTFNKFNKSYNGTVD”, the “percentage of EdU-negative” value with MCF7 (setting [5]) came out at 25.2 ± 1.3%; in the series with MCF7 (protein concentration 0.225 µM), 26 ± 1.5%; with hTERT-HMEC (setting [5]) it was 5.13 ± 0.59%; with hTERT-HMEC (protein concentration 0.225 µM) it was 7.6 ± 1.1%.
